In general, Kd refers to the constant that tells how readily two partners part at equilibrium.

Details in all cases: G4
One series deals with Glucagon (Homo sapiens, UniProt P01275 P01275:53-81). The series is described as follows: graphene FET current change <1.3% at up to 1 uM vs 8.5% for insulin. On the procedure: (§1) To examine the specificity of the nanosensor to insulin over other related analogues that might interfere with the detection of insulin, glucagon and somatostatin, which were secreted by the pancreatic islet alpha and delta cells, respectively, were evaluated as negative control analytes. This is because glucagon [molecular weight (MW): 3.5 kD, PI: 6.2], promoting […] by the liver and together with somatostatin (MW: 1.63 kD, PI: 5.6) regulating the secretion of insulin, share similar physical properties with insulin, which can affect the sensing performance. The functionalized graphene nanosensor was first exposed to somatostatin solutions prior to the introduction of insulin. The change in Ids, denoted as ΔIds, was recorded throughout the experiment and compared as the response of the aptameric nanosensor to the given solutions. To minimize errors caused by device-to-device nonuniformity, the time-resolved selective response as the ratio of ΔIds to ΔIds,max (the maximum value of ΔIds) was calculated:
Additionally, a similar real-time monitoring control experiment was conducted with glucagon (FIG. 107). […] Here, ΔIds,S(C)=Ids,S(C)−Ids,PBS, where Ids,S(C) is the Ids measured at the binding equilibrium for given solutions (insulin/glucagon/somatostatin) at representative tested concentrations.

Another series addresses Insulin (Homo sapiens, UniProt P01308;P01308 P01308:25-54,P01308:90-110). Kind of series: graphene FET, PBS pH 7.4, Hill-Langmuir fit of Dirac voltage shift. On the procedure: The nanosensor insulin measuring capabilities were subsequently tested in PBS buffer. Insulin solutions of increasing concentrations from 100 pM to […] were sequentially introduced to the PDMS chamber of the nanosensor. The binding of insulin to the IGA3 aptamer was allowed to reach equilibrium before the replenishment of sample solutions.
The binding of insulin and aptamer was allowed to reach equilibrium for 10 min before the replenishment of higher concentration insulin solution. Thus, the dipping time of graphene in solutions was increased with the ongoing experiment. The slight decrease in the minimum of Ids (Ids,min,) in the transfer characteristic curve, observed in FIG. 99A was considered as a result of the increase in the ionic strength caused by the evaporation of PBS buffer (150 mM NaCl) with increasing dipping time.
Further, the equilibrium dissociation constant (KD) for the IGA3 aptamer and insulin with different VDirac at corresponding insulin concentrations was evaluated using the aptamer-functionalized GFETs. […] The change in VDirac, denoted as ΔVDirac, is plotted as a function of insulin concentrations with error bars obtained from three different devices (FIG. 99B).

For another series, the target named is T1, Somatostatin (Homo sapiens, UniProt P61278 P61278:103-116).
T1 chain: AGCKNFFWKTFTSC
Kind of series: graphene FET current change <1.3% at up to 1 uM vs 8.5% for insulin; normalized response <0.192. How it is done:
as §1
where Ids,PBS is the Ids measured in fresh PBS buffer. […] On the contrary, the calculated ΔIds/ΔIds,max value increased and reached 1.0 at […] insulin with stepwise increments in the insulin concentration (FIG. 101A).
Additionally, a similar real-time monitoring control experiment was conducted with glucagon (FIG. 107). […]

Glucagon, sequence (P01275 53-81, one chain of several): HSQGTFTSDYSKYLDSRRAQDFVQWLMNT
Insulin, sequence (P01308 25-54, chain 1 of 2): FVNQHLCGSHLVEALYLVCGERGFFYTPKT
Insulin, sequence (P01308 90-110, chain 2 of 2): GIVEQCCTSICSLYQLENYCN

On to GGTGGTGGGGGGGGTTGGTAGGGTGTCTTC (ssDNA, 5'-NH2 (coupled to PASE on graphene)) [IGA3 insulin aptamer], for which the binding result in the series with Glucagon and in the series with Somatostatin was “no binding” in each case. Also, the Kd in the series with Insulin came to 35 nM.

The values are drawn from patent publication US20180368743, “GRAPHENE-BASED NANOSENSOR FOR IDENTIFYING TARGET ANALYTES” (THE TRUSTEES OF COLUMBIA UNIVERSITY IN THE CITY OF NEW NEW …, published 2018).
